This note sets out measurements from PMC10687032, “Phosphorylation of USP27X by GSK3β maintains the stability and oncogenic functions of CBX2” (Cell Death & Disease, 2023).

One assay has as its target CBX2 (UniProt Q14781). The assay is described as follows: co-IP with anti-Myc, anti-HA immunoblot. To be noted: reference: HA-USP27X wild type; sites S135.
The target in a further assay is T1, His-Myc-CBX2 (human, UniProt Q14781 1-532).
T1 construct: Chromobox protein homolog 2 (CBX2), human; the His-Myc construct is named only in the pull-down methods; the cloning of a His-Myc construct is not described; also called Purified Myc-CBX2
T1 sequence (looked up): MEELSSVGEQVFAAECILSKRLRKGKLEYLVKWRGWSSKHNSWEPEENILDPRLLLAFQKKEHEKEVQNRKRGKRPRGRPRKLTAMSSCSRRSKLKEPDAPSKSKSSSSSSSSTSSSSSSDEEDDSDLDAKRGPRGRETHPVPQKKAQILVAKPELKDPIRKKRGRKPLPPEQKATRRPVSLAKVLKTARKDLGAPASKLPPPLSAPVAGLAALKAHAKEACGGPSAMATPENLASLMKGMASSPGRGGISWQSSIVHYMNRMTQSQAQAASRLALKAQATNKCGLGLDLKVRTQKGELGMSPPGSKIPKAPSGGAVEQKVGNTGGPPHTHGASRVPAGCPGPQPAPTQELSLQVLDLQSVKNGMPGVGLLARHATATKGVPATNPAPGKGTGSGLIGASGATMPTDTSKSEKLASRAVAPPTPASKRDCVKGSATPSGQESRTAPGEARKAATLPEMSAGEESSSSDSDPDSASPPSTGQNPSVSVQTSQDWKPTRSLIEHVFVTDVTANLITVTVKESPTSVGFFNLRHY
The assay is described as follows: pull-down; GST-USP27X bound to glutathione-Sepharose 4B beads incubated with His-Myc-CBX2 for 2 h at 4 °C; retained proteins immunoblotted. To be noted: both partners purified.

Take “USP27X (from UniProt A6NNY8) HA-USP27X S135A”: the “binding against the reference” value with CBX2 is listed as “weaker”.

B1: GST-USP27X (enzyme, human, UniProt A6NNY8 1-438, looked up)
chain: MCKDYVYDKDIEQIAKEEQGEALKLQASTSTEVSHQQCSVPGLGEKFPTWETTKPELELLGHNPRRRRITSSFTIGLRGLINLGNTCFMNCIVQALTHTPILRDFFLSDRHRCEMPSPELCLVCEMSSLFRELYSGNPSPHVPYKLLHLVWIHARHLAGYRQQDAHEFLIAALDVLHRHCKGDDVGKAANNPNHCNCIIDQIFTGGLQSDVTCQACHGVSTTIDPCWDISLDLPGSCTSFWPMSPGRESSVNGESHIPGITTLTDCLRRFTRPEHLGSSAKIKCGSCQSYQESTKQLTMNKLPVVACFHFKRFEHSAKQRRKITTYISFPLELDMTPFMASSKESRMNGQLQLPTNSGNNENKYSLFAVVNHQGTLESGHYTSFIRHHKDQWFKCDDAVITKASIKDVLDSEGYLLFYHKQVLEHESEKVKEMNTQAY
notes: ubiquitin-specific peptidase 27X (USP27X), human cDNA cloned into pGEX-1λT (plasmids section) or pGEX-4T-1 (pull-down section); also called GST-USP27X-WT; Recombinant GST-USP27X; source: E. coli BL21, purified (GST beads)
As to B1, the binding result with His-Myc-CBX2 is given as “binds”.
